The target in the test is HSP90 (heat shock protein 90) (human (endogenous in the human Huh7.5-derived JFH-1 cell line)) (UniProt P07900). Description: cell-based or functional assay.

We go through one substance from patent publication US20190032032A1.

The substance “PEP1 peptide (hTERT-derived 16mer peptide, 611-…-626)” displayed a mean 50% inhibitory concentration (IC50) of HIV-1 viral particle production in MT-4 cells, p24 ELISA of 850 nM.
